Source: patent US20070111258A1, “Compositions and methods for modulating the acute phase response” (priority 2005, published 2007)

What was measured:
murine SAP mRNA = assay: Endogenous SAP mRNA in liver after hydrodynamic plasmid DNA tail-vein injection (Northern blot); format: in vivo, mouse; details: wild-type mice; 80 μg plasmid DNA tail vein injection; 36 hours
Experimental: (§1) FIG. 10 depicts activation of expression of APR genes in vivo. (A) The nuclear form of CREBH or ATF6 activates expression of the endogenous SAP mRNA in mice. Northern blot analysis of the endogenous SAP mRNA in mice injected with vector expressing the nuclear form of ATF6 (ATF6 p50) or CREBH (CREBH-N). Wild-type C57BL/6J mice at 3 months of age were injected with 80 μg plasmid DNA expressing ATF6 p50, CREBH-N or empty vector DNA through hydrodynamic plasmid DNA tail-vein injection (Miao et al. 2004). Liver samples were collected from mice at 36 hours after injection, and were subjected to Northern blot analysis to detect the murine SAP mRNA levels. Experiments were performed at least 3 times and representative data is shown. (B-C) Nuclear forms of CREBH and ATF6 act synergistically to induce transcription from the human CRP promoter and the UPRE motif. To detect synergistic effects of CREBH and ATF6 on expression of the reporter, vector DNA (15 ng control vector, 10 ng CREBH- and/or 15 ng AFT6-expression vector) was mixed with 100 ng reporter construct and 150 ng pcDNA3-lacZ for transfection of H2.35 cells in one well of a 6-well plate. The amount of luciferase activity was normalized to the amount of β-galactosidase activity.

UPRE motif [1] = assay: UPRE luciferase reporter analysis in COS7 cells; format: cell-based; details: for activation of luciferase expression from UPRE reporter relative to vector control: absence of Tm
human CRP promoter = assay: Human CRP promoter luciferase reporter in H2.35 cells; format: cell-based
Experimental: as §1
FIG. 11 depicts the synergistic interaction of CREBH with ATF6 to activate transcription of the major APR genes. (A) Luciferase reporter analysis of trans-activation effects of CREBH on promoters of the murine SAP gene and the human CRP gene in H2.35 cells. H2.35 cells in a 35 mm collagen-coated plate were co-transfected with a control vector or a CREBH expression vector (0.25 μg), the luciferase reporter (0.6 μg) and pcDNA3-LacZ (0.25 μg), and were then cultured in the absence or presence of Tm (5 μg/ml) for 10 hours. (B) CREBH-DN efficiently suppresses CREBH trans-activation on the murine SAP and the human CRP promoters. H2.35 cells were co-transfected with the luciferase reporter construct and a control vector or a vector expressing CREBH-DN, and were then cultured in the absence or presence of Tm (5 μg/ml) for 10 hours. (C) Interaction between ATF6 and CREBH was determined by IP-Western blot analysis. 293T cells were transfected with a control vector or a vector expressing the nuclear/cleaved form of CREBH, and were then cultured in the absence or presence of Tm for 8 hours. Total cell lysates were immunoprecipated by using an anti-human ATF6 polyclonal antibody or an anti-flag antibody and were then subjected to Western blot analysis by using anti-flag antibody or anti-human ATF6 antibody. Expression levels of CREBH in the transfected cells were determined by Western blot analysis of total cell lysates using the anti-flag antibody (lower panel). (D) Luciferase reporter analysis showing trans-activation effects of the nuclear forms of ATF6 or CREBH on the murine SAP and human CRP promoters in H2.35 cells. H2.35 cells in a 35 mm collagen-coated plate were co-transfected with a vector expressing ATF6 p50 or CREBH-N (0.25 μg), the luciferase reporter (0.6 μg) and pcDNA3-LacZ (0.25 μg). (E-F) Luciferase reporter analysis showing synergistic effects of CREBH and ATF6 on transcriptional induction from the murine SAP promoter (E), and the human CRP promoter (F) in H2.35 cells. […]

murine SAP promoter = assay: Murine SAP promoter luciferase reporter in H2.35 cells; format: cell-based
Experimental: FIG. 11 depicts the synergistic interaction of CREBH with ATF6 to activate transcription of the major APR genes. (A) Luciferase reporter analysis of trans-activation effects of CREBH on promoters of the murine SAP gene and the human CRP gene in H2.35 cells. H2.35 cells in a 35 mm collagen-coated plate were co-transfected with a control vector or a CREBH expression vector (0.25 μg), the luciferase reporter (0.6 μg) and pcDNA3-LacZ (0.25 μg), and were then cultured in the absence or presence of Tm (5 μg/ml) for 10 hours. (B) CREBH-DN efficiently suppresses CREBH trans-activation on the murine SAP and the human CRP promoters. H2.35 cells were co-transfected with the luciferase reporter construct and a control vector or a vector expressing CREBH-DN, and were then cultured in the absence or presence of Tm (5 μg/ml) for 10 hours. (C) Interaction between ATF6 and CREBH was determined by IP-Western blot analysis. 293T cells were transfected with a control vector or a vector expressing the nuclear/cleaved form of CREBH, and were then cultured in the absence or presence of Tm for 8 hours. Total cell lysates were immunoprecipated by using an anti-human ATF6 polyclonal antibody or an anti-flag antibody and were then subjected to Western blot analysis by using anti-flag antibody or anti-human ATF6 antibody. Expression levels of CREBH in the transfected cells were determined by Western blot analysis of total cell lysates using the anti-flag antibody (lower panel). (D) Luciferase reporter analysis showing trans-activation effects of the nuclear forms of ATF6 or CREBH on the murine SAP and human CRP promoters in H2.35 cells. H2.35 cells in a 35 mm collagen-coated plate were co-transfected with a vector expressing ATF6 p50 or CREBH-N (0.25 μg), the luciferase reporter (0.6 μg) and pcDNA3-LacZ (0.25 μg). (E-F) Luciferase reporter analysis showing synergistic effects of CREBH and ATF6 on transcriptional induction from the murine SAP promoter (E), and the human CRP promoter (F) in H2.35 cells. To detect synergistic effects of CREBH and ATF6 on reporter gene expression, vector DNA (25 ng control vector, 20 ng CREBH- and/or 25 ng ATF6-expression vector) was mixed with 100 ng reporter construct and 150 ng pcDNA3-lacZ for transfection of H2.35 cells in a 35 mm collagen-coated plate.
Plasmids, pME18S, pME-CREBH Full and pME-CRE1H d™ were kindly provided by Dr. Sumio Sugano (Institute of Medical Science, University of Tokyo, Japan) (Omori et al., 2001). Plasmid pFlag-CREBH Full that expresses a full-length CREBH (amino acids 1-455) was constructed by insertion of a PCR product from pME-CREBH Full into expression vector pFlag-CMV-4 between EcoR I and BamH I. Vector pFlag-CMV-4 is designed for stable, cytoplasmic expression of N-terminal flag fusion proteins in mammalian cells (purchased from Sigma-Aldrich). Plasmid pFlag-CREBH-ΔC that expresses the nuclear form of CREBH (amino acids 1-320) was constructed by insertion of a PCR product from pME-CREBH d™ into pFlag-CMV-4 between EcoR I and BamH I. Plasmid pFlag-CREBH-DN that expresses only the CREBH bZIP domain (amino acids 209-320) was constructed by insertion of a PCR product from pME-CREBH Full into pFlag-CMV-4 between EcoR I and BamH I. The reporter plasmid containing the luciferase gene under control of the human CRP gene, pGL3-CRP, was constructed by insertion of a 637 bp fragment containing 5′-flanking and promoter region of the human CRP gene into luciferase reporter vector pGL3-basic (purchased from Promega, Madison, Wis.) between Sac I and Xho I. The 637 bp 5′-flanking fragment of the human CRP gene was amplified from human genomic DNA by using a forward primer: 5′-[…]-3′; and a reverse primer 5′-[…]-3′. The reporter plasmid containing the luciferase gene under control of the mouse SAP gene, pGL3-SAP, was constructed by insertion of an 863 bp fragment containing 5′-flanking and promoter region of the mouse SAP gene into pGL3-basic between Xho I and Hind III. […]

UPRE motif [2] = assay: UPRE luciferase reporter in H2.35 cells; format: cell-based
Experimental: as §1, with “The amount of luciferase activity was normalized to the amount of β-galactosidase activity.” left out
At 36 h post transfection, transfected cells were lysed and assayed for luciferase and β-galactosidase activity by using a Tropix Luciferase/β-Galactosidase Dual Light. […] Photons were detected in an Optima II Luminator (MGM Instruments). […]

[3] = H2.35 cells, Tm 5 μg/ml 10 hours, endogenous CREBH
[4] = co-expression with ATF6 p50, absence or presence of ER stress
[5] = co-expression with full-length or cleaved CREBH, absence or presence of ER stress

| Molecule | murine SAP mRNA in the liver compared to control vector (murine SAP mRNA) | activation of luciferase expression from UPRE reporter relative to vector control (UPRE motif [1]) | expression of luciferase from the CRP reporter compared to the controls (human CRP promoter; H2.35 cells) [fold] | expression of luciferase from the SAP reporter relative to vector control (murine SAP promoter; H2.35 cells, without Tm) | activation of luciferase expression from UPRE reporter (UPRE motif [1]; after Tm treatment, 10 hours) | expression of luciferase under control of the human CRP promoter (human CRP promoter; H2.35 cells, expression of CREBH) | expression of luciferase from the SAP reporter relative to vector control (murine SAP promoter; H2.35 cells, Tm 5 μg/ml 10 hours) | ATF6-mediated trans-activation on the UPRE reporter (UPRE motif [2]; co-expression with ATF6 p50) | CREBH-induced reporter gene expression, UPRE reporter (UPRE motif [2]; co-expression with cleaved CREBH) | luciferase expression from the human CRP promoter in response to ER stress (human CRP promoter; [3]) | ATF6-mediated trans-activation on the CRP reporter (human CRP promoter; [4]) | CREBH-induced reporter gene expression, CRP reporter (human CRP promoter; [5]) | luciferase expression from the murine SAP promoter in response to ER stress (murine SAP promoter; [3]) | ATF6-mediated trans-activation on the SAP reporter (murine SAP promoter; [4]) | CREBH-induced reporter gene expression, SAP reporter (murine SAP promoter; [5]) |
| --- | --- | --- | --- | --- | --- | --- | --- | --- | --- | --- | --- | --- | --- | --- | --- |
| CREBH-N: nuclear/cleaved form of CREBH (amino acids 1-320) expressed from a vector (protein, UniProt Q68CJ9 1-320, looked up, fragment) MNTDLAAGKMASAACSMDPIDSFELLDLLFDRQDGILRHVELGEGWGHVKDQQVLPNPDSDDFLSSILGSGDSLPSSPLWSPEGSDSGISEDLPSDPQDTPPRSGPATSPAGCHPAQPGKGPCLSYHPGNSCSTTTPGPVIQVPEASVTIDLEMWSPGGRICAEKPADPVDLSPRCNLTVKDLLLSGSSGDLQQHHLGASYLLRPGAGHCQELVLTEDEKKLLAKEGITLPTQLPLTKYEERVLKKIRRKIRNKQSAQESRKKKKEYIDGLETRMSACTAQNQELQRKVLHLEKQNLSLLEQLKKLQAIVVQSTSKSAQT | higher levels of the murine SAP mRNA | approximately 18 fold | ~11 | approximately 16 fold |  |  |  |  |  |  |  |  |  |  |  |
| CREBH-F: flag-tagged full-length CREBH (amino acids 1-455) expressed from a transfected vector (protein, UniProt Q68CJ9 1-461, looked up, full-length Flag tag, flag-tagged full-length CREBH (amino acids 1-455) expressed from a transfected vector) MNTDLAAGKMASAACSMDPIDSFELLDLLFDRQDGILRHVELGEGWGHVKDQQVLPNPDSDDFLSSILGSGDSLPSSPLWSPEGSDSGISEDLPSDPQDTPPRSGPATSPAGCHPAQPGKGPCLSYHPGNSCSTTTPGPVIQVPEASVTIDLEMWSPGGRICAEKPADPVDLSPRCNLTVKDLLLSGSSGDLQQHHLGASYLLRPGAGHCQELVLTEDEKKLLAKEGITLPTQLPLTKYEERVLKKIRRKIRNKQSAQESRKKKKEYIDGLETRMSACTAQNQELQRKVLHLEKQNLSLLEQLKKLQAIVVQSTSKSAQTGTCVAVLLLSFALIILPSISPFGPNKTESPGDFAPVRVFSRTLHNDAASRVAADAVPGSEAPGPRPEADTTREESPGSPGADWGFQDTANLTNSTEELDNATLVLRNATEGLGQVALLDWVAPGPSTGSGRAGLEAAGDEL |  | approximately 2 fold |  | approximately 2.5 fold | more than 10 fold | significantly activated | approximately 14 fold |  |  |  |  |  |  |  |  |
| CREBH-DN: dominant negative truncated CREBH, only the bZIP domain (amino acids 209-320), expressed from plasmid pFlag-CREBH-DN (protein, UniProt Q68CJ9 209-320, looked up, fragment, bZIP domain Flag tag, dominant negative truncated CREBH, only the bZIP domain (amino acids 209-320), expressed from plasmid pFlag-CREBH-DN) HCQELVLTEDEKKLLAKEGITLPTQLPLTKYEERVLKKIRRKIRNKQSAQESRKKKKEYIDGLETRMSACTAQNQELQRKVLHLEKQNLSLLEQLKKLQAIVVQSTSKSAQT |  |  |  |  |  |  |  | efficiently suppressed ATF6-mediated trans-activation | significantly suppressed the ability for CREBH to induce reporter gene expression | efficiently suppressed luciferase expression | efficiently suppressed ATF6-mediated trans-activation | significantly suppressed the ability for CREBH to induce reporter gene expression | efficiently suppressed luciferase expression | efficiently suppressed ATF6-mediated trans-activation | significantly suppressed the ability for CREBH to induce reporter gene expression |
